Where only a bound is given, the exact number is not on record here.

The source of these data is patent US20250197505A1.

The target in experiment [1] is human CD94 expressed on cells (human primary NK cells in PBMCs; HEK cells expressing human CD94) (human) (UniProt Q13241). Briefly: flow cytometry, PE HLA-E tetramer on NK cells of PBMCs pre-incubated with antibody; competitor HLA-E tetramer. Background: In flow cytometry, cells or beads pass a laser one at a time.
The target is the same in experiment [2]. Briefly: HLA-E tetramer blocking assay, flow cytometry on CD3-CD56+ NK cells in healthy donor PBMCs; antibody at one saturating concentration, blocked ligand PE-labelled HLA-E tetramer; percent blocking = 100-((percent HLA-E positive with antibody)/(percent HLA-E positive with isotype)*100).
The target is the same in experiment [3]. Briefly: flow cytometry titration on CD3-CD56+ NK cells in healthy donor PBMCs; 'Affinity on Human NK Cells'; the filing derives these affinities as EC50 of titration curves (the 2.6nM of 18H3 is labelled EC50 in FIG. 1).
Experiment [4] shares this target. The experiment can be described thus: cell-based or functional assay.
The target is the same in experiment [5]. The experiment can be described thus: competition assay, flow cytometry on CD3-CD56+ NK cells in healthy donor PBMCs; HP-3B1 titrated in the presence of Mouse IgG1 control (no competitor).
Experiment [6] has the same target. Briefly: competition assay, flow cytometry on CD3-CD56+ NK cells in healthy donor PBMCs; HP-3B1 titrated in the presence of Human IgG1 control (no competitor).
The target is the same in experiment [7]. The description is as above. The source holds these as a separate data set.

human CD94 expressed on cells (human primary NK cells in PBMCs; HEK cells expressing human CD94) (human), sequence (Q13241 whole entry): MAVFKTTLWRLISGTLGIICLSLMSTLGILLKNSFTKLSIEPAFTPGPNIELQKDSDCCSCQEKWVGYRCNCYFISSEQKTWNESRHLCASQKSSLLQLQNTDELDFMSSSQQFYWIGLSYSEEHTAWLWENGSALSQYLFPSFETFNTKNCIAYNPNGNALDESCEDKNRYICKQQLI

What is called EC50 is the concentration needed to bring the measured effect to its halfway point. Read a low EC50 as a more potent agent. As for “commercial anti-CD94 antibody clone 12K45”, in experiment [1], the percent HLA-E blocking is over 40%. In addition, the HLA-E Blocking in experiment [2] was determined as 47%. In experiment [3], the concentration giving a half-maximal response (EC50) was found to be 7 nM.
Substance “commercial anti-CD94 antibody clone 131412” displayed a percent HLA-E blocking in experiment [1] of over 40%. The same substance displayed an HLA-E Blocking in experiment [2] of 40%. In experiment [3], the EC50 was 11 nM.
In turn, “commercial anti-CD94 antibody clone DX22” displayed a percent decrease in MFI (antibody internalization assay), comparing 0.5 hours to 24 hours at 37° C. in experiment [4] of 56%. The substance further registered a percent HLA-E blocking in experiment [1] of over 40%. Moreover, the HLA-E Blocking in experiment [2] amounted to 99%. The substance further showed an EC50 in experiment [3] of 0.15 nM.
One may read the EC50 (read off the curve) as the concentration needed to bring the measured effect to its halfway point. For the substance “commercial anti-CD94 antibody clone HP-3B1”, the percent HLA-E blocking in experiment [1] was over 40%. Moreover, the EC50 (read off the curve) in experiment [5] was determined as 2 nM; in experiment [6], 3 nM; in experiment [7], 2 nM. The HLA-E Blocking in experiment [2] amounted to 99.8%. The same substance registered an EC50 in experiment [3] of 3 nM.
Consider “commercial anti-CD94 antibody clone HP-3D9”, for which the percent decrease in MFI (antibody internalization assay), comparing 0.5 hours to 24 hours at 37° C. in experiment [4] worked out at 54%. For the same substance, in experiment [1], the percent HLA-E blocking was over 40%. The same substance returned an HLA-E Blocking in experiment [2] of 99%. The substance further showed an EC50 in experiment [3] of 0.07 nM.
